Values quoted from earlier work as cited in paper PMC11932923.

Target: IL-36R (Homo sapiens) (UniProt Q9HB29)
Assay: Biacore SPR

UniProt Q9HB29, sequence (Q9HB29 20-575): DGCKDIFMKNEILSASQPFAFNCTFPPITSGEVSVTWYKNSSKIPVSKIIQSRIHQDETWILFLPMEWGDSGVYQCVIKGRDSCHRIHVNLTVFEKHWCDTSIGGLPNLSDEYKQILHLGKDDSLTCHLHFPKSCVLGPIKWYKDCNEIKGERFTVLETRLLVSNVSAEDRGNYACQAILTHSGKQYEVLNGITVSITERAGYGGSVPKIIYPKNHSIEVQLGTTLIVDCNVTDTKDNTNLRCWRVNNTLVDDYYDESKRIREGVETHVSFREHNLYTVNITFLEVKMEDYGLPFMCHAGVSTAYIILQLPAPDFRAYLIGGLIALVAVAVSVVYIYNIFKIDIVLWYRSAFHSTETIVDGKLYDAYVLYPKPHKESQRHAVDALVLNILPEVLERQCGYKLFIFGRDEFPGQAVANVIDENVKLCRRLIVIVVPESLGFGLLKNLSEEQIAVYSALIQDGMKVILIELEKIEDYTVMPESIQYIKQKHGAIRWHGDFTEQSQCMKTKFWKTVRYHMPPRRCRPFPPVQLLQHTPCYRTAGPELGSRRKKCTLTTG

In the case of “IL-36β (N-terminally truncated) (from UniProt Q9NZH7)”, the Kd is listed as 7 pM.
